In patent publication US20180171024A1:

Tests used:
[1] = target: HLA-A2 on cells (tumor cell lines, normal primary cells, PBMCs) (human); test: flow cytometry, Loucy cells
[2] = target: HLA-A2 on cells (tumor cell lines, normal primary cells, PBMCs) (human); test: flow cytometry, PBMCs #IB, 10 µg/ml
[3] = target: HLA-A2 on cells (tumor cell lines, normal primary cells, PBMCs) (human); test: flow cytometry, PBMCs #YE, 10 µg/ml
[4] = target: HLA-A2 on cells (tumor cell lines, normal primary cells, PBMCs) (human); test: flow cytometry, 501A cells
[5] = target: HLA-A2 on other WT1 negative HLA-A2+ cells (other than 501, A498 and SKMEL; members not named); test: flow cytometry on IM-9 cells (WT1 mRNA -)
[6] = target: HLA-A2 on other WT1 negative HLA-A2+ cells (other than 501, A498 and SKMEL; members not named); test: flow cytometry on JVM-2 cells (WT1 mRNA -)
[7] = target: Unloaded T2 (Homo sapiens); test: flow cytometry, unloaded T2 cells
[8] = target: HLA-A2/154 on T2 cells (human); test: flow cytometry, T2 cells loaded with 154 peptide
[9] = target: HLA-A2 on cells (tumor cell lines, normal primary cells, PBMCs) (human); test: flow cytometry, 'Umbryonic cells' #HUE-1, 10 µg/ml
[10] = target: HLA-A2/DUSP5 on T2 cells (human); test: flow cytometry, T2 cells loaded with DUSP5 peptide
[11] = target: HLA-A2 on cells (tumor cell lines, normal primary cells, PBMCs) (human); test: flow cytometry, WM-115 melanoma cells
[12] = target: HLA-A2/ARHGAP on T2 cells (human); test: flow cytometry, T2 cells loaded with ARHGAP peptide
[13] = target: HLA-A2 on cells (tumor cell lines, normal primary cells, PBMCs) (human); test: flow cytometry, ST486 cells, 10 µg/ml
[14] = target: HLA-A2/MAGE-A4 230-239 complex on cells (human); test: flow cytometry, T2 cells loaded with 10^-4 M peptide
[15] = target: HLA-A2/MAGE-A9 223-231 complex on T2 cells (human); test: as above
[16] = target: HLA-A2/PAP 112-120 complex on T2 cells (human); test: as above
[17] = target: HLA-A2 on HLA-A2+ cells that do not express WT1 (tumor cell lines, normal primary cells); test: flow cytometry on A498 cells (WT1 mRNA -)
[18] = target: HLA-A2 on unloaded T2 cells (human); test: flow cytometry, unloaded T2 cells, 10 µg/ml
[19] = target: HLA-A2/TyrD-S6 on T2 cells (human); test: flow cytometry, T2 cells loaded with TyrD S6 [..], 10 µg/ml
[20] = target: HLA-A2 on cells (tumor cell lines, normal primary cells, PBMCs) (human); test: flow cytometry, 501A melanoma cells, 10 µg/ml
[21] = target: HLA-A2 on cells (tumor cell lines, normal primary cells, PBMCs) (human); test: flow cytometry, A375 melanoma cells, 10 µg/ml
[22] = target: HLA-A2/TyrD-S21 on T2 cells (human); test: flow cytometry, T2 cells loaded with TyrD-S21 [..], 10 µg/ml
[23] = target: HLA-A2 on cells (tumor cell lines, normal primary cells, PBMCs) (human); test: flow cytometry, 624.38 melanoma cells, 10 µg/ml
[24] = target: Unloaded T2 (Homo sapiens); test: flow cytometry, unloaded T2 cells, PE anti-mouse
[25] = target: HLA-A2/Tyrosinase369-377 complex on cells (human); test: flow cytometry, T2 cells loaded with 10^-4 M peptide
P68 … (Homo sapiens) = test: as above
[26] = target: HLA-A2/WT1-S10 on T2 cells (human); test: flow cytometry, peptide-loaded T2 cells (10^-4-10^-5 M)
[27] = target: HLA-A2/WT1-S11 on T2 cells (human); test: as above
[28] = target: HLA-A2/WT1-S13 on T2 cells (human); test: as above
[29] = target: HLA-A2/WT1-S16 on T2 cells (human); test: as above
[30] = target: HLA-A2/WT1-S22 on T2 cells (human); test: as above
[31] = target: HLA-A2/WT1-S6 on T2 cells (human); test: as above
[32] = target: HLA-A2/WT1-S7 on T2 cells (human); test: as above
[33] = target: HLA-A2/M1 on T2 cells (human); test: flow cytometry, T2 cells loaded with M1 peptide
[34] = target: HLA-A2/Tyrosinase369-377 complex on cells (human); test: flow cytometry, T2 cells loaded with TyrD [..], 10 µg/ml
[35] = target: HLA-A2 on cells (tumor cell lines, normal primary cells, PBMCs) (human); test: flow cytometry, colonic smooth muscle cells #2940, 10 µg/ml
[36] = target: HLA-A2/TyrD-S3 on T2 cells (human); test: flow cytometry, T2 cells loaded with TyrD S3 [..], 10 µg/ml
[37] = target: HLA-A2/TyrD-S12 on T2 cells (human); test: flow cytometry, T2 cells loaded with TyrD S12 [..], 10 µg/ml
[38] = target: HLA-A2/TyrD-S17 on T2 cells (human); test: flow cytometry, T2 cells loaded with TyrD-S17 [..], 10 µg/ml
[39] = target: HLA-A2/Tyrosinase369-377 complex on cells (human); test: flow cytometry, T2 cells loaded with TyrD peptide ([..] printed under the label), 10 µg/ml

BB7.2 (antibody) showed a GeoMean [1] of 734, an MFI [2] of 552 and an MFI [3] of 366. It also gave a GeoMean [4] of 1290, an MFI [5] of 727 and an MFI [6] of 238. It also gave an MFI [7] of 290, an MFI [8] of 1920 and an MFI [9] of 553. It also gave an MFI [10] of 2470, an MFI [11] of 127 and an MFI [12] of 2580. For the same substance, the MFI [13] was 681, the MFI [14] was 492 and the MFI [15] was 486. The MFI [16] was 540, the MFI [17] was 350 and the MFI relative to background [18] was 286. The MFI relative to background [19] was 516, the MFI [20] was 243 and the MFI [21] was 174. The MFI relative to background [22] was 654, the MFI [23] was 311 and the MFI [24] was 1050. For the same substance, the MFI [25] was 471, the MFI (P68 … (Homo sapiens)) was 542 and the MFI [26] was 450. It also gave an MFI [27] of 449, an MFI [28] of 296 and an MFI [29] of 379. The MFI [30] was 376, the MFI [31] was 500 and the MFI [32] was 592. The MFI [33] was 1990, the MFI relative to background [34] was 430 and the MFI [35] was 744. It also gave an MFI relative to background [36] of 430, an MFI relative to background [37] of 532 and an MFI relative to background [38] of 444. The MFI relative to background [39] was 848.
